# Source: the supplement of paper PMC10126150
# ± gives the standard deviation of the averaged measurements.
# Tested on: ATP
# Assay: switch fluorescence ratio, 500 uM ATP over buffer (Cy3 cluster intensity, sum of 5 cycles each) (fold (ratio)); higher = stronger signal-on switching upon ATP binding; sequences stand for … in TCGTCGGCAGCGTCAGATGTGTATAAGAGACAGTTTTTTTTTTTTTTTTTTTTTTTTT…TC
# Conditions: aptamer strand: ATP DNA aptamer (quencher-CACCTGGGGGAGTATTGCGGAGGAAGG + anchor), 100 nM annealed; ATP concentration: 500 uM
# In short: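 For every switch-domain sequence, the fluorescence ratio is the mean of per-cluster values, each being summed target-cycle Cy3 intensity over summed buffer-cycle Cy3 intensity. Clusters outside 100-1000 RFU were excluded. On a modified Illumina MiSeq flow-cell, the Cy3-labelled switching-strand clusters were annealed to 100 nM quencher-labelled ATP aptamer, imaged in selection buffer and then after 15 min with 500 uM ATP at 22 °C. Five such cycles were run, with NaOH stripping and re-annealing between them.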
# 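Also: ATP exposure 15 min at 22 °C before imaging.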
row,Sequence,switch fluorescence ratio
1,TAGGTAGCTT,1.02 ± 0.021
2,GGCGGGACGG,1.01 ± 0.033
3,ATTTGAAGTA,1.01 ± 0.04
4,TCGGTTAATG,1 ± 0.042
5,CAGGAACTGT,0.985 ± 0.018
6,ATGGTAGCAA,2.05 ± 0.14
7,TTAAGGCAA,1.125 ± 0.0087
8,TAGGTGCGGT,0.989 ± 0.015
9,AATGGATGTG,0.991 ± 0.013
10,GGGGATGGGA,1.01 ± 0.033
11,AAGGGGTGTA,0.985 ± 0.04
12,TTAGGACGCT,1.03 ± 0.036
13,AGGTAATGGT,0.998 ± 0.039
14,TTCAGGCATG,0.999 ± 0.04
15,CGTGGCCGTT,0.978 ± 0.095
16,TCCTGGGTAT,1.69 ± 0.98
17,CATGGTATTT,0.9797 ± 0.0095
18,CAGTGATCTT,0.97521 ± 0.00076
19,ACGTGTTTGT,1.03 ± 0.018
20,GGTCTAGG,0.992 ± 0.036
21,CAATTGCTGG,0.949 ± 0.035
22,AGATGGGGTT,1.01 ± 0.028
23,AATAATAAAC,1.006 ± 0.0047
24,TGGTCTCTTT,1 ± 0.039
25,AGTGCCTATG,0.994 ± 0.019

row,Sequence,switch fluorescence ratio
1,GAGGAATCGA,1.04 ± 0.065
2,GTGGCACG,1.01 ± 0.025
3,TAAATTTGTA,0.99 ± 0.028
4,TGCGGGTGGG,1.03 ± 0.026
5,TAGGGTCGGT,1 ± 0.041
6,GCCATAATAT,1.01 ± 0.023
7,TTGGTAGTTT,1.022 ± 0.0061
8,GGATAGTGGT,1.01 ± 0.0079
9,TGTTGAGTGT,0.962 ± 0.017
10,AGAATTCCCT,1.011 ± 0.01
11,CAGTTTGCTG,0.979 ± 0.018
12,CGCCCCGTCA,0.954 ± 0.036
13,GCGAGGCCGT,1 ± 0.056
14,TTTGTTTTCT,1.01 ± 0.032
15,TTGATGAAAA,1 ± 0.038
16,GAAATGATTC,1 ± 0.024
17,TTAGGTGGGC,1.08 ± 0.021
18,CCCTAGGGTT,1.44 ± 0.56
19,GTCGGTTTTT,0.972 ± 0.022
20,TAAGGTATTA,0.972 ± 0.019
21,TCGTCGAACG,0.988 ± 0.04
22,TAAACGGTGC,1.07 ± 0.023
23,AGATGGGGTA,0.9705 ± 0.0077
24,AGGGGCAGTT,0.985 ± 0.02
25,TGTAAGGGCG,1.02 ± 0.016

row,Sequence,switch fluorescence ratio
1,TGCGTCAAAT,0.999 ± 0.024
2,AGAGACATGC,0.923 ± 0.085
3,AGGCAAAGGG,0.995 ± 0.044
4,GGGGTTGGGA,0.971 ± 0.025
5,GAGGAAGGGG,1 ± 0.016
6,TGATGATGGG,0.985 ± 0.038
7,TTTTACCACT,1.0422 ± 0.00058
8,TTCAGAATTG,1.0012 ± 0.00092
9,TTGTTCGATG,0.99 ± 0.025
10,AGATGTTAGC,0.983 ± 0.047
11,AACGACTGGG,0.997 ± 0.051
12,GATGTCGGTC,0.9825 ± 0.0039
13,ATAAGCCCGT,0.976 ± 0.014
14,TTGGCCGGAG,1.001 ± 0.0084
15,GTTTAAATTC,1 ± 0.08
16,TAGTTGGGGG,1 ± 0.028
17,TGAGTCTAG,0.997 ± 0.038
18,AAGAACTAAA,1.05 ± 0.081
19,TTGTTGTTTT,0.995 ± 0.035
20,ACGCGGACGG,1.05 ± 0.016
21,ATAAACTAGA,1.01 ± 0.019
22,ATGGATGTGG,0.979 ± 0.055
23,GTGAGCGACG,0.965 ± 0.027
24,TTTTACGCAG,1.03 ± 0.044
25,CACGGGGGTT,1 ± 0.018

row,Sequence,switch fluorescence ratio
1,GTCATAGTTC,0.966 ± 0.015
2,AGGAGGCCAG,0.969 ± 0.05
3,TCCTCGTCTC,1.69 ± 0.038
4,AGGTTACCGG,0.987 ± 0.019
5,CCCCAGGGGT,2.44 ± 2
6,GCTCCGGGCG,1.13 ± 0.075
7,TGGTTTCAGG,1.01 ± 0.025
8,TTGGTGTGGC,0.9967 ± 0.0092
9,CCGAGTTTGT,1.05 ± 0.011
10,GTTGTAAGGT,0.986 ± 0.034
11,AGTTCGCTAA,1.012 ± 0.003
12,ATTTTCTATG,0.978 ± 0.029
13,GCGTTTAGGG,1.03 ± 0.054
14,CTTAGACGTC,0.948 ± 0.043
15,ACACGTCTGG,1.01 ± 0.029
16,GTTATCGGAC,1.01 ± 0.015
17,CAAGTTGAAA,0.9693 ± 0.0034
18,GGTGGATTCG,1.06 ± 0.063
19,AACTTTAGGT,0.987 ± 0.023
20,CTTGGGTTTG,1.06 ± 0.14
21,TTAGCGAGTT,0.979 ± 0.014
22,TTATTAATCT,0.9974 ± 0.0049
23,AACGGGAGAT,0.991 ± 0.048
24,TTTTTATGAG,1 ± 0.036
25,GCGCTTAAGT,0.986 ± 0.043

row,Sequence,switch fluorescence ratio
1,AAAGGAGGGG,0.983 ± 0.02
2,CATTTCACGC,1.0996 ± 0.00041
3,TTTTTTGC,0.955 ± 0.011
4,TATTAGTTAA,0.992 ± 0.019
5,AGGTGTTAGC,0.955 ± 0.046
6,AATCGGGTCT,0.999 ± 0.015
7,GCTTCGAGGG,0.968 ± 0.013
8,GCTGTATGGC,1.01 ± 0.027
9,GTCTGTATGT,1.015 ± 0.0028
10,AAATGAGTGT,0.975 ± 0.026
11,GGAGCGAGGG,1.11 ± 0.061
12,ACAAACGGGT,1.44 ± 0.073
13,CACTAATGAG,1.0254 ± 0.00028
14,GGATGAGGGA,0.957 ± 0.029
15,CAGAATTGGG,0.967 ± 0.028
16,CTTGTATACG,0.9888 ± 0.001
17,GGAGGGGGCG,0.999 ± 0.061
18,AACCTGTAGG,0.987 ± 0.021
19,ATTTTTACTT,0.974 ± 0.032
20,TGAGTTGACT,1 ± 0.015
21,GAATTTGATT,1.02 ± 0.025
22,AAATGGATCG,1 ± 0.018
23,GAGAGGTTTT,1 ± 0.029
24,TGGGGCCCGA,1.02 ± 0.037
25,TTTTATTTCG,1.03 ± 0.068

row,Sequence,switch fluorescence ratio
1,TTATGCAAAG,1.1 ± 0.15
2,GGGGTGCTTT,0.987 ± 0.017
3,AAGTGCGGCC,0.987 ± 0.011
4,ATCCTTGTTT,0.997 ± 0.083
5,AGCTAGAGCT,0.963 ± 0.033
6,GGGTTTTATA,1.016 ± 0.01
7,AGAAGGGGGT,1.02 ± 0.035
8,AAGAATCTCT,0.968 ± 0.045
9,CGAGAGGCGA,1.05 ± 0.027
10,CGAGTATGCA,0.981 ± 0.024
11,GACGTGAGGA,0.989 ± 0.024
12,AGGAGCTGCG,0.998 ± 0.038
13,AACCTGGGTA,1.008 ± 0.0035
14,CTTTTATTGG,1 ± 0.029
15,AGGAAGTGCC,1.032 ± 0.0062
16,AAATGGTTGT,1.01 ± 0.02
17,AAGGTTTAAG,0.999 ± 0.011
18,GCTTTTAGCC,0.991 ± 0.043
19,GGGGAAGCCG,1.01 ± 0.027
20,TAATGATTTT,0.967 ± 0.031
21,GGGGAATAAG,1.01 ± 0.053
22,GCGGGTTGCT,1.25 ± 0.39
23,GAGGGGCGCG,0.997 ± 0.065
24,TTTTTTGCT,0.996 ± 0.039
25,GTTTGATGCG,0.995 ± 0.022

row,Sequence,switch fluorescence ratio
1,ATCCCTAAAA,1.0207 ± 0.00031
2,CTGTGGCCCG,0.98 ± 0.027
3,ACAGTACACA,1.3 ± 0.061
4,AAGTTCAGTT,1.01 ± 0.016
5,TTATATTAAG,1.01 ± 0.031
6,TTGTTGTTAG,1.0094 ± 0.00094
7,CAGGGTTGGG,1 ± 0.019
8,AAATTAGATG,1.009 ± 0.0051
9,AAGGGGAAGG,0.996 ± 0.012
10,TTTGGTGGGT,0.975 ± 0.012
11,GTGGTTTTAT,0.979 ± 0.013
12,GGTAGTATCC,1.02 ± 0.025
13,GAAGGGGACG,1.006 ± 0.0085
14,ACGCTTTGCA,0.987 ± 0.01
15,GCTAATATGG,0.998 ± 0.044
16,ACACTATAAT,1.09 ± 0.014
17,TATCGTAGAG,1.011 ± 0.0072
18,TTAGGATATA,1 ± 0.046
19,ACGTGCGGGC,1.05 ± 0.013
20,CTCTGAGGGC,1.07 ± 0.057
21,TCCTGGGAT,1.01 ± 0.03
22,GAATAGGTAA,1.023 ± 0.0038
23,AAAGGTAATT,1.01 ± 0.015
24,AATGGTTCGC,1.009 ± 0.0069
25,TAACGGCGTG,1.03 ± 0.021

row,Sequence,switch fluorescence ratio
1,CCACAGGGTG,4.53 ± 1.5
2,GGGGGAACGC,0.998 ± 0.054
3,AGGGGGGCT,1.01 ± 0.031
4,TAATGTGTTA,1.04 ± 0.13
5,CGGAGGTTTC,1.02 ± 0.03
6,GTTTTTAGAT,0.9709 ± 0.0092
7,CCGTTGGGGG,1.01 ± 0.036
8,CGGGCCCGTA,0.961 ± 0.094
9,CATGAATTCA,1.04 ± 0.033
10,TACATTCGTC,1.07 ± 0.075
11,TATTGGGGAT,1.06 ± 0.043
12,CAGAGGGGGG,0.994 ± 0.019
13,TTGGAGCGTG,1.003 ± 0.0015
14,GATACTTTTT,1.01 ± 0.029
15,GAGGGAGTCG,1.01 ± 0.022
16,ACTACTACCA,1.31 ± 0.048
17,CGGGGAGGCG,0.982 ± 0.079
18,TTTTTTTGCT,0.994 ± 0.024
19,AGAGAAGGTC,1.017 ± 0.0086
20,TCAACGTCAG,0.9872 ± 0.0048
21,GTGAAAGTTT,0.998 ± 0.062
22,TATTGGAGAT,1 ± 0.021
23,GCTCTGAGTA,1.04 ± 0.073
24,TGCGACCATT,1.03 ± 0.04
25,GAGGGGGGGC,1.01 ± 0.07
